{"source": "the DeepSol protein solubility set"}
{"assay": "soluble on expression in E. coli; label from the status in PepcDB or PDB records"}
{"sequence": "MYMSSLQSTRERVLGTPRRRYKVLVAKMGLDGHDRGAKVVARALRDAGFEVVYTGLRQTPEQVAMAAVQEDVDVIGVSILNGAHLHLMKRLMAKLRELGADDIPVVLGGTIPIPDLEPLRSLGIREIFLPGTSLGEIIEKVRKLAEEKRMREEAEASEQVGQA", "soluble on expression in E. coli": "soluble"}
{"sequence": "MGSDKIHHHHHHMENIPFLRASTVPVIEYLDELKEIDASHIYTNYGPINQRFEQTIMSGFFQNRGAVTTVANATLGLMAAIQLKKRKKGKYALMPSFTFPATPLAAIWCGLEPYFIDISIDDWYMDKTVLWDKIEELKEEVAIVVPYATFGSWMNLEEYEELEKKGVPVVVDAAPGFGLMNGGMHYGQDFSGMIIYSFHATKPFGIGEGGLIYSKNEEDIQRIKRMGNFGFDTNRECTMMGFNCKMSEYAAAIGIATMKKWDDKLKERTRISEWYKQLLQSNGLMKKGWQLQKTEAVIQQFMPILCPEEVRNKQVIEDLKKQKIEARLYFSPSCHQQVLFRNYKSTDLTRTNKIAKRIVSLPLWEGMTKEIVEQIVICLGQKVVSADE", "soluble on expression in E. coli": "not soluble"}
{"sequence": "MAHHHHHHMDSASGDGGDGAPASAERHSLKPLRWIEEVRDASQPNAVFLNVYDVRGSSTLLYSVGWGVHHVGVQVYGKEYQYGHRPIGKGIGSVKPHQSPPHTYREQFFLGQTQLSASEVEKLVVAFSDKVEWLGSNYHLVKHNCIDFARAFCEALLPPAVRVEQARRAEEAGLSQKMHMVEVEVDGMRHSVPVLIPHHVDRLARYAAHYLPKSSMQRFDRLESSFFSMSEVPQERGQPTAADPDTNRSTTPTPQPHTRTSH", "soluble on expression in E. coli": "not soluble"}
{"sequence": "MRCMTLPAYDIAILGAGPVGRVLALLLARLTPQPQRIALLQGGAGLPPTPAGTLGPAADPRVLALNHGSRVLLESLRAWPAHAAEIRHIHVSQRGRLGRTVIDREDFDVPQLGNVVAYAALHAQLEQAVQDCGVTVLSGPPARVDGQDGEGLTVRQGDAALHCRLAVQCDGAGGSDVRRDYAQHAVLTSAHATLPRSGWAWERFTNEGPLAMLPHPQTPEAYSVVWCCAPPRAQRLAGLDDEAFSRELTEAFGTRLGRLRSAAPRHVFPLELKARHAQAHGRLATIGNAAQTLHPVAGQGLNLGLRDAAQLAHALPDWLAAPQADPSPLLAAFARARLADRWVTAGLTDLMPRIFATGLAPVEHACGLALLGLDIAAPLRAPLARHLLQGLRV", "soluble on expression in E. coli": "not soluble"}
{"sequence": "MSLKKMMDSTTVIITTTDNRVLLQKRDENPDIEYSGYYSLVSGYLEEEETPLDGIIRELKEEFEHKKSQKVHFSSITYLGSEYRADYDRWEYIHHTYLMDDAADIRILEGESFVLLDMDECLRLENLAPHHKLFLLKYRAGLCKIDVREQSKKMFDEITVRDLIKVESVGDVKNYSLLEAGTGFVIGEDTTLSASIPAVEAAKYIGFLQFVPKVLRGNHYHFRKVEYMLILQGRMHATFQKYDDSEAVIEEIWEKGDLVRTLPGCVHTLTALGESNVLTIEFSPQPYVARDVLMNDKEGHHHHHH", "soluble on expression in E. coli": "soluble"}
{"sequence": "MEKLNRAADDSMINTLSEKSNEFSFYQAVLLLEKHYQFEPNSNFVAVGENKYFHQERIEFSVSPNLCFPKSDMEFIVHMERNGQQYSRVETNFLGLHGSSSPLPVSYTEKLTGREPDDNPVKDFFDFFHNRYTSLLYRVWKKYRYHVQYQSGATDAFSGRMLHLAGLSGVMQDCGVAELDRAKVLSYVNQLSTRTRSPKLISGIVSHYFSLPSVRIEEWVYRRVEIADSQRNKLNRANCILGQSFHLGQSIADLNGKFNLCIDDIDFETFKQFSYEGELHKTLVGLMRFILRDPMSWDLKLTVNLDSIPNNQLGNGEGNNLGQTFWLGNPTDEDVKIRVIGSI", "soluble on expression in E. coli": "not soluble"}
{"sequence": "MGSDKIHHHHHHMPLKRLNRFRLWLWETPPVYEIRGRCFQIKERLCGYPELHRAFRERTGYELSLHHPCTFHHKITVLKIRRSPRIFVRAVDKIFAKELALEWAHQHGFRLYVARTLAVTKDVSEIRWHELPQRFLIKATHRSGANLFVDQSQAFDLDALRVQSRAWLQYPYGVYKHEWAYWPVPRRLLIEELIEPVDGEELVDYKFHMSRGRCLMIQVNQGLRSGKRTIAILHPSWQLQPVKWVYPQPEVIPQRPDTFYEMLEMASAFSREFPYLRVDLYSVKQVMSGVMVSRVMFGEFTFFPGSGSESVDPFAFDLAIGKEIKL", "soluble on expression in E. coli": "not soluble"}
{"sequence": "MPFLPPLTPPTELYLGIQLPNPISILVNYLPVSQTPIETLRNLVYSCNINTLAIDEFMTWPSLLQPESTFRSYFELLVERGSIPAVYLEGVRQASNFVTVAQGLSVMTTVALSDPFACFATGLFLTCTGNHLDFLPISEKFWEMTPTLEAGHAVAEMVMYHISQLHTENARRWERSWRFVHPPSCVGQGDCYILLEAKLLRFKLLYSALLSSLLV", "soluble on expression in E. coli": "not soluble"}
{"sequence": "MGSDKIHHHHHHMDAAAAPERIDLAGLVADLNALLRLKTTVIGMKLFRTVAEMEAVPKIRRPNAIHTTDQIVSMASRLGWTVGITAADLVGEQCRAVIGLAPQDAAWLAGRSYVGVWHATPEDASARQQALDVVPFGHHQAMAVSPLASGRLDPPDICLVYATPGQMIILINGLQYAGYKKFEWSVVGETACADSWGRALKTGEPSLSLPCFAERRYGGVPDEEMLMALSPAHLAKAIDGMKQLAKNGLRYPIAPYGIQADVRAGMGVSYGNK", "soluble on expression in E. coli": "not soluble"}
{"sequence": "GMSEAPHLTFDLDTPGVSTGHLVVPKGADCEALSLPVFSCNRGEGPSLLITGGNHGNELQGPILARRLVKWLPEAQRCGRIIIVPEINPLAVQAWTRNTPIDGKNLNRVFPGRSDGSVSERIADAISRLLLPVVDTVLDLHSFGPTWDCAPSIISHPIADIDQMTKTVSISKAFKLPVTLLWEHNETDGMFDTLVHRQGKTFICTEFGGGVVSAEALTIYEAGVRNGLIALGLVKGKAEYPTFRQQKTGQTLETTSSDQLKSPSPGIFEPRCSVMDEVEQGDVVGVLHPMGSLSAASIDIRAQSKSTVFAIRSAMYVQGNEEVAILARPLAR", "soluble on expression in E. coli": "soluble"}
{"sequence": "HHHHHHHHHHMLPTPYVKCDYDKVYEPAEDSFLILDCLEKEHDFLKQKFGNRLAIVCEIGSGSGIVTTFLMQNKIIPQENSIHLAVDINPWALEATLDTAKLNSCKSSFLEVIQADLNSSIRNNQVDVLIFNPPYVPAECVPDVPGSREEADQWLDLALLGGKDGMAITDKLLRQLEQILSPDGVAYILFCARNKPKEVIKRFVDTYKWNVKLIETRKAGWEVLSVYSFTR", "soluble on expression in E. coli": "not soluble"}
{"sequence": "MTESTLAFVFPGQGSQSLGMLAELSELHPQIRETFAEASEGAGVDLWALSQGGPEEMLNRTEYTQPALLAAGVAVWRLWTAQRGQRPALLAGHSLGEYTALVAAGVLSLHDGAHLVRLRGQFMQAAAPAGVGAMAAVLGAEDAVVLEVCAEAAGSQVVVPANFNSPGQIVIGGDAAAVDRALALLAERGVRKAVKLAVSVPSHTPLMRDAANQLGEAMAGLSWHAPQIPVVQNVDARVHDGSAAIRQALVEQLYLPVQWTGCVQALASQGITRIAECGPGKVLSGLIKRIDKSLDARPLATPADYAGALDAWAH", "soluble on expression in E. coli": "soluble"}
{"sequence": "MAHHHHHHMASAVVAPPRGIKADPRASPNQGRRNGDGGRVLHAVPEEANKRRREREEAQHGAARYRGRNGQAVAELHGTARVKVNLVRRGTSKRRKGGRVGHLHHKPRRAPRPLAKHICPRALGETRISDGRPRPPQPRSDERHGSEGVVAVGAHVPYGSAPLRRRKHRNEAGRQQVRRVRHVRRLVPRVEGEVKPHVQLQRLTRRNHAHVPTQRGEADELGTLLHSNHVKVTAHRRGRRCRPKASARAAAGRERRRHARSRRSAPPAQVRRIDARRVAQKRSTHVHNRVIPDRSNAVRTRRGGRNDTLALRQHETHRRAAARGDLSVPHHNGAVGPHLHLRRQRVPRRHARRQRHIAVLNSHTLVPRAAVGARHAVHPDTRRQPCSRGV", "soluble on expression in E. coli": "not soluble"}
{"sequence": "MVVEMLGKLKEKLQSFIRRVEENVEKEEDEAKKKGLLDKILMIEIKEKDIEEALEDLELELLEADVALEVVDELKDRIKRNLVGKKVRIGTNKEKIIEEAVRKAVLEILTPEKKMDLLEEIKKAEKPYVILFVGFNGSGKTTTIAKLAHWLKKNGFSVVIAASDTFRAGAIEQLEEHAKKVGVKVIKHKYGADPAAVAYDAIQHAKARGIDVVLIDTAGRSETNRNLMDEMKKIARVTKPNLVIFVGDSLAGNAIVEQARQFNQAVKIDGVILTKLDADARGGAALSISHVINAPILFVGIGQGYEDLIPFDERWFVEKILGEESA", "soluble on expression in E. coli": "soluble"}
{"sequence": "MSLIDLYDLRMPQRTGTYVLHEENLAIIETGPSPSVPHLLAGLKALHIDPADIRYIIVTHIHLDHAGGVGVLLEHCPNATVIVHPKGKRHLADPSRLIAGAKAVYGEQFDALFDPIVPVPEERLLVKEDGETLVLSAERTLTFYDTPGHANHHFSIYDSYSGGVFTGDTIGVFYPQLQEAGLAFCLPSTSPNQFNPEAMKQSAERLEKLNPTRIYFGHFGALDQPEEAFRQLRFWLPKFVAAGKEVIARHPEAPAAEQAKAVTKLLHNDITAFLNECSIPASSPVYKVIELDLQVCAMGIIDYWRKQRLEHHHHHH", "soluble on expression in E. coli": "not soluble"}
{"sequence": "MDTWKVGPVELKSRLILGSGKYEDFGVMREAIAAAKAEVVTVSVRRVELKAPGHVGLLEALEGVRLLPNTAGARTAEEAVRLARLGRLLTGERWVKLEVIPDPTYLLPDPLETLKAAERLIEEDFLVLPYMGPDLVLAKRLAALGTATVMPLAAPIGSGWGVRTRALLELFAREKASLPPVVVDAGLGLPSHAAEVMELGLDAVLVNTAIAEAQDPPAMAEAFRLAVEAGRKAYLAGPMRPREAASPSSPVEGVPFTPTGPRPGRGPQ", "soluble on expression in E. coli": "soluble"}
{"sequence": "MNALLSNPFKERLRKGEVQIGLWLSSTTAYMAEIAATSGYDWLLIDGEHAPNTIQDLYHQLQAVAPYASQPVIRPVEGSKPLIKQVLDIGAQTLLIPMVDTAEQARQVVSATRYPPYGERGVGASVARAARWGRIENYMAQVNDSLCLLVQVESKTALDNLDEILDVEGIDGVFIGPADLSASLGYPDNAGHPEVQRIIETSIRRIRAAGKAAGFLAVAPDMAQQCLAWGANFVAVGVDTMLYSDALDQRLAMFKSGKNGPRIKGSY", "soluble on expression in E. coli": "soluble"}
{"sequence": "MSTIIDVYAREVLDSRGNPTVEVEVYTESGAFGRAIVPSGASTGEHEAVELRDGDKSRYLGKGVMNAVNNVNEAIAPEIVGFDVTDQAGIDRAMIELDGTPNKGKLGANAILGVSMAVAHAAADFVGLPLYRYLGGFNAKQLPTPMMNIINGGSHADNNVDFQEFMILPVGAPTFKESIRMGAEVFHALKAVLHDKGLNTAVGDEGGFAPNLGSNREALEVIIEAIEKAGYKAGENVFLGMDVASSEFYNKETGKYDLAGEGRTGLTSAEMVDFYEELCKDFPIISIEDGLDENDWDGHKLLTERIGDKVQLVGDDLFVTNTQKLAEGIEKGISNSILIKVNQIGTLTETFEAIEMAKRAGYTAVVSHRSGETEDATIADIAVATNAGQIKTGSMSRTDRIAKYNQLLRIEDELGEIAVYDGIKSFYNIKR", "soluble on expression in E. coli": "soluble"}
{"sequence": "MGSDKIHHHHHHCRDELSTAGGKWVESSLRTIQTDTCTVRLSTILSDSLATSGDTVCQIGTIDDPVWGKIKAAFYAEYDVPTVSFSENADYRFDSITIRFYSSGNYLGDTLSPQRISLHSLSENLSLDEGYLYTTSKVSYHSTPLASFTFTPTPGETIREHEIRLPDEWGVEWFEHFQAGSREMESQEYFRDYFKGIAFIPEEGGNCVNGFMVNDSSLCITLYYHQTETDATELSADFLPNSDLRFNQVSCDRSRTALSSLQSGLNNGLPSEKSEHQSYLQGLTGMYINIDFPFLNDLRAEGRLVTIESALLRLYPVKGTYGKQYPLPESLTLYTADENNVTEDVVTDISGSSVQTGSLVTDEMMGEDTYYSFDITSFLQSNLGTVGYNRKILQLMLPDNLFFTTLNGVVFGDARHPDSNPVKLTLLYKTYNP", "soluble on expression in E. coli": "not soluble"}
{"sequence": "TVGCVAVDSHGNLASATSTGGLVNKMVGRIGDTPLIGAGTYANELCAVSATGKGEEIIRATVARDVAALMEFKGLSLKEAADFVIHERTPKGTVGLIAVSAAGEIAMPFNTTGMFRACATEDGYSEIAIWPTT", "soluble on expression in E. coli": "soluble"}
